For one substance, Kd and peak force (maximum unbinding force) results are on record in doi:10.1101/2024.08.10.607320.

The target of assay [1] is Collagen I (triple helix of two α1 chains and one α2 chain) (UniProt P02454). The experiment in a line: SPR.
Assay [2] shares this target. The experiment in a line: AFM adhesion force.

Chain of Collagen I (triple helix of two α1 chains and one α2 chain) (P02454 152-1207, chain 1 of 2): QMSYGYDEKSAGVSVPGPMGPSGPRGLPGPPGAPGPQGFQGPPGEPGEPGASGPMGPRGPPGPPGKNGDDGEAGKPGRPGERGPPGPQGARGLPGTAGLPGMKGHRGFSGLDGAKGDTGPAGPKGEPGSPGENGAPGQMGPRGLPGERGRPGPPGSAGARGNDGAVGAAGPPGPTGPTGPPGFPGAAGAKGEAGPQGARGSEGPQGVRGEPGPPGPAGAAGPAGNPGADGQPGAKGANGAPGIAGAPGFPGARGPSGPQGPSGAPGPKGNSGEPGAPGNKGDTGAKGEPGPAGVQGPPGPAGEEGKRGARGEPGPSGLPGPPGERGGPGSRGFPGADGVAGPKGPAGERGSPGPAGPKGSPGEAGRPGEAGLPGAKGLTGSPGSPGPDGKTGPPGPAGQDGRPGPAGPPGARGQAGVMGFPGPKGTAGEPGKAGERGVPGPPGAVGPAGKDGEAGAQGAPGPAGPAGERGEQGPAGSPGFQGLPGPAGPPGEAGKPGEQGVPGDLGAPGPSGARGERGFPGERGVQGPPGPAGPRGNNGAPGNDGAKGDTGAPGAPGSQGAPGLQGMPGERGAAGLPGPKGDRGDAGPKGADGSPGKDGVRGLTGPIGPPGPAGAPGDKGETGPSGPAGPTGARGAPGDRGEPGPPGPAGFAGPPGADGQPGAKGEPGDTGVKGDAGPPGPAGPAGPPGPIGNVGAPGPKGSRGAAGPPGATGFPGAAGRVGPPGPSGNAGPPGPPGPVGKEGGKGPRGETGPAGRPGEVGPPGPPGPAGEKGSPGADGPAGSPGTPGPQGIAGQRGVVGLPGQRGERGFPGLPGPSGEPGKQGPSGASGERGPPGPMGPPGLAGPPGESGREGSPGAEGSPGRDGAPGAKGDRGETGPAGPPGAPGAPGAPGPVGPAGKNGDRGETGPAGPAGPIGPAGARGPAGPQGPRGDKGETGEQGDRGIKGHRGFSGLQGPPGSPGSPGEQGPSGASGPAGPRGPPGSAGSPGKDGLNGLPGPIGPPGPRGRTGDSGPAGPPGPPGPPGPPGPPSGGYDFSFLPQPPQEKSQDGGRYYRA
Chain of Collagen I (triple helix of two α1 chains and one α2 chain) (P02466 86-1125, chain 2 of 2, further chain): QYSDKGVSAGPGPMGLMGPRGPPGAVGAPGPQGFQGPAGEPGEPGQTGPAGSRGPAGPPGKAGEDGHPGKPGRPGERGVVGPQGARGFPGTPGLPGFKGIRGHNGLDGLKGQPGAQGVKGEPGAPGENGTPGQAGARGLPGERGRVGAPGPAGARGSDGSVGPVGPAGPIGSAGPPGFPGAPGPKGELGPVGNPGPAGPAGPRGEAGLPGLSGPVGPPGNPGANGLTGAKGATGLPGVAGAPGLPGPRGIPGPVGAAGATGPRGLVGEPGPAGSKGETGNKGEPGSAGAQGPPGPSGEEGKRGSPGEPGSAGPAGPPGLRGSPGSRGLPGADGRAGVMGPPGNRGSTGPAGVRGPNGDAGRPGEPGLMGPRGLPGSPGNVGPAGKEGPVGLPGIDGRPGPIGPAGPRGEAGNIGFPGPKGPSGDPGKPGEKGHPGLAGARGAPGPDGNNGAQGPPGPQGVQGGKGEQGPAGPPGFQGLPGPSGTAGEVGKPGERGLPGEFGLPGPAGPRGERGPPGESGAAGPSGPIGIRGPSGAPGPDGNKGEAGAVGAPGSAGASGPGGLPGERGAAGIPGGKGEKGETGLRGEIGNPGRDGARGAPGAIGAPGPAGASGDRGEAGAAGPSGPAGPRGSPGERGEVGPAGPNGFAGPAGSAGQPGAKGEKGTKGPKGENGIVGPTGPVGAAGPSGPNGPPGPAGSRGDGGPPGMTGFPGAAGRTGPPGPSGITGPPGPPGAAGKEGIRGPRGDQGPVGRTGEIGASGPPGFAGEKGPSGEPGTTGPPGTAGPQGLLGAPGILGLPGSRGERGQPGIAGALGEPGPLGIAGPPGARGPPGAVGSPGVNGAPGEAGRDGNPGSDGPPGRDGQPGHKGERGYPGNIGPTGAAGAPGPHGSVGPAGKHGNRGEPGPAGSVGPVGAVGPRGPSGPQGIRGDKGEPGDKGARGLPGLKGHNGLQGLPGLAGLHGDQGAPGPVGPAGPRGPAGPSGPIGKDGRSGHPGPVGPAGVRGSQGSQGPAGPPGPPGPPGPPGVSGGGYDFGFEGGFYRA

In assay [1], “Amylin1-37 (human islet amyloid polypeptide), recombinant, monomer (from UniProt P10997 34-70)” displayed a Kd of 6.27 µM. Further, in assay [2], the peak force (maximum unbinding force) was found to be 3.5 nN.
